# Numbering of substitutions follows the chain as printed.
# B1: antibody 401 (antibody, V domains shown)
# VH: QVQLVQSGAEVKKPGSSVKVSCKASGGTFSSYAISWVRQAPGQGLEWMGRIIPILGIANYAQKFQGRVTIIADKSTSTAYMELSSLRSEDKAVYYCAREGKSDSSSALWYFDLWGRGTLVTVSP
# VL: not shown
# B2: antibody 402 (antibody, V domains shown)
# VH: QVQLVQSGAEVKKPGASVKVSCKVSGYTLTELSMHWVRQAPGKGLEWMGGFDPEDVETIYAQKFQGRVTMTEDTSTDTAYMELSSLRSEDTAVYYCATGVAVVGTSHSYYYYYGMDVWGQGTTVTVSS
# VL: DIQMTQSPSSLSASVGDRVTITCRASQGISNYLAWYQQKPGKVPKLLIYAASTLQSGVPSRFSGSGSGTDFTLTISSLQPEDVATYYCQKYNSAPFTFGPGTKVDIK
# B3: antibody 387 (antibody, V domains shown)
# VH: QVQLVESGGGVVQPGRSLRLSCAASGFTFSSYGMHWVRQAPGKGLEWVAVISYDGSNKYYADSVKGRFTISRDNSKNTLYLQMNSLRAEDTAVYYCAKDDTKNYGDLDIDYWGQGTLVTVSS
# VL: SYELTQPSSVSVSPGQTARITCSGDVLAKKYARWFQQKPGQAPVLVIYKDSERPSGIPERFSGSSSGTTVTLTISGAQVEDEADYYCYSAADNNLGVFGGGTKLTVL
# B4: antibody 404 (antibody, V domains shown)
# VH: QVQLVESGGGVVQPGRSLRLSCAASGFTFSSYGMHWVRQAPGKGLEWVAVIWYDGSNKYYADSVKGRFTISRDNSKNTLYLQMNSLRAEDTAVYYCARLAVDISFDGSDGMDVWGQGTTVTVSS
# VL: SYELTQPPSVSVSPGQTARITCSGDALPKKYAYWYQQKSGQAPVLVIYEDSKRPSGIPERFSGSSSGTMATLTISGAQVEDEADYYCYSTDSSGKGVFGTGTKVTVL
# B5: antibody 391 (antibody, V domains shown)
# VH: EVQLVESGGGLVQPGGSLRLSCAASGFTFSSYWMHWVRQAPGKGLVWVSRINSDGSSTSYADSVKGRFTISRDNAKNTLYLQMNSLRAEDTAVYYCALGPLDIVGSYYYYGMDVWGQGTTVTVSS
# VL: NFMLTQPHSVSESPGKTVTISCTGSSGSIASNYVQWYQQRPGSAPTTVIYEDNQRPSGVPDRFSGSIDSSSNSASLTISGLKTEDEADYYCQSYDSSNQDVVFGGGTKLTVL
# B6: antibody 410 (antibody, V domains shown)
# VH: QVQLVQSGAEVKKPGASVKVSCKASGYTFTSYGISWVRQAPGQGLEWMGWISAYNGNTNYAQKLQGRVTMTTDTSTSTAYMELRSLRSDDTAVYYCARGRITIFGVEYYYGMDVWGQGTTVTVSS
# VL: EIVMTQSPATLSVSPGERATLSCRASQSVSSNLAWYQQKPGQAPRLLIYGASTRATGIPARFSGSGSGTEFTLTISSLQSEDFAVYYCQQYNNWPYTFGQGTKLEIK
# B7: antibody 394 (antibody, V domains shown)
# VH: QVQLVQSGAEVKKPGASVKVSCKASGYTFTGYYMHWVRQAPGQGLEWMGWINPNNGGTNSAQKFQGRVTMTRDTSISTAYMELNRLRSDDTAVYYCARDITTTAGTDYYYGMDVWGQGTTVTVSS
# VL: SYELTQPPSVSVSPGQTARITCSGDALPKQYAYWYQQKPGQAPVLVICKDSERPSGIPERFSGSSSGTTVTLTISGVQAEDEADYYCQSADSSGTYIVFGTGTKVTVL
# B8: antibody 397 (antibody, V domains shown)
# VH: QVQLVESGGGVVQPGRSLRLSCAASGFTFSSYGMHWVRQAPGKGLESVAVISYDGSNKYYADSVKGRFTISRDNSKNTLYLQMNSLRAEDTAVYYCAKEGQWELQGNAFDIWGQGTMVTVSS
# VL: B7 VL with C48Y, A90G, I97R, T101G, V105L
# B9: antibody 399 (antibody, V domains shown)
# VH: QVQLVQSGAEVKKPGASVKVSCKASGYTFTSYGISWVRQAPGQGLEWMGWISAYNGNTNYAQKLQGRVTMTTDTSTSTAYMELRSLRSDDTAVYYCARDSGYDWAGGHYYYYGMDVWGQGTTVTVSS
# VL: QSALTQPASVSGSPGQSITISCTGTSSDVGGYNYVSWYQQHPGKAPKLMIYEVSNRPSGVSNRFSGSKSGNTASLTISGLQAEDEADYYCSSYTSSSTLVVFGGGTKLTVL
# B10: antibody 430 (antibody, V domains shown)
# VH: QVHLVEAGGGVVQPGKSLRLSCAASGFIFSNFGMHWVRQSPGKGLEWVAVVSYDASVTKYSDSFEGRFTISRDNSKNTLYLQMDSLRPEDSAVYYCAKGQGANLLHDWGQGILVTVSS
# VL: DVVLTQSPLSLPVTLGQPASISCRSSESLVYTDGDTYLHWFHQRPGQSPRRLIYKVSNRDSGVPDRFSGSGSGTDFTLRISRVEAEDVGVYYCMQGTHWPFTFGPGTKVDIK
# B11: antibody 449 (antibody, V domains shown)
# VH: not shown
# VL: QSALTQPASVSGSPGQSITISCTGTSSDVGGYNYVSWYQQHPGKAPKLMIYEVSNRPSGVSNRFSGSKSGNTASLTISGLQAEDEADYYCSSYTSSSTVVFGGGTKLTVL
# B12: antibody 455 (antibody, V domains shown)
# VH: QVQLVQSGAEVKKPGSSVKVSCKASGGTFSSYAISWVRQAPGQGLEWMGRIIPILGIANYAQKFQGRVTITADKSTSTAYMELSSLRSEDTAVYYCARDSIVVPAAIISGYYYYGMDVWGQGTTVTVSS
# VL: QSVLTQPPSVSAAPGQKVTISCSGSSSNIGNNYVSWYQQLPGTAPKLLIYDNNKRPSGIPDRFSGSKSGTSATLGITGLQTGDEADYYCGTWDSSLSAGRVFGGGTKLTVL
# B13: antibody 451 (antibody, V domains shown)
# VH: EVQLVESGGGLVQPGGSLRLSCAASGFTFSTYWMSWVRQAPGKGLEWVANIKQDGSEKYYVDSVKGRFTISRDNAKNSLYLQMNSLRAEDTAVYYCARLGGSSWYFDYWGQGTLVTVSS
# VL: not shown
# B14: antibody 433 (antibody, V domains shown)
# VH: QVQLVESGGGVVQPGRSLRLSCAASGFTFSSYAMHWVRQAPGKGLEWVAVISYDGSNKYYADSVKGRFTISRDNSKNTLYLQMNSLRAEDTAVYYCAKDYEVVIAIGGPGAFDYWGQGTLVTVSS
# VL: SYVLTQPPSVSVAPGKTARITCGGNNIGSKSVHWYQQKPGQAPVLVIYYDSDRPSGIPERFSGSNSGNTATLTISRVEAGDEADYYCQVWDSSSDHVVFGGGTKLTVL
# B15: antibody 448 (antibody, V domains shown)
# VH: QVQLVQSGAEVKKPGASVKVSCKASGYTFTSYGISWVRQAPGQGLEWMGWISAYNGNTNYAQKLQGRVTMTTDTSTSTAYMELRSLRSDDTAVYYCAIELLEGFYYYYGMDVWGQGTTVTVSS
# VL: SYELTQPPSVSVSPGQTARITCSGDALPKQYAYWYQQKPGQAPVLVIYKDSERPSGIPERFSGSSSGTTVTLTISGVQAEDEADYYCQSADSSGTYPYVVFGGGTKLTVL
# B16: antibody 438 (antibody, V domains shown)
# VH: EVQLVESGGGLVQPGGSLRLSCAASGFTFSSYSMNWVRQAPGKGLEWVSYISSSSSTIYYADSVKGRFTISRDNAKNSLYLQMNSLRAEDTAVYYCARDRGYSDYGPYYYGMDVWGQGTTVTVSS
# VL: not shown
# B17: antibody 461 (antibody, V domains shown)
# VH: EVQLVESGGGLVKPGGSLRLSCAASGFTFSSYSMNWVRQAPGKGLEWVSSISSSSSYIYYADSVKGRFTISRDNAKNSLYLQMNSLRAEDTAVYYCASNPAAGQEAYYYYGMDVWGQGTTVTVSS
# VL: not shown
# B18: antibody 440 (antibody, V domains shown)
# VH: EVQLLESGGGLVQPGGSLRLSCAASGFTFSSYAMSWVRQAPGKGLEWVSAISGSGVNTYHADSVKGRFTISRDNSRNTLYLQMSSLTAEDTAAYYCAKDFEAASGAYYYYGMDVWGQGTTVTVSS
# VL: B7 VL with K29D, L45V, C48Y, S51R, S65N, G94A, I97V, T101G, V105L
# B19: antibody 441 (antibody, V domains shown)
# VH: EVQLVESGGGVVRPGGSLRLSCAASGFTFGDYGMSWVRQAPGKGLEWVSGINWNGGSTGYADSVKGRFTISRDNAKNSLYLQMNSLRAEDTALYYCASDLVRGVIGFDYWGQGTLVTVSS
# VL: B7 VL with C48Y, T95I, Y96T, I97G, T101G, V105L
# B20: antibody 458 (antibody, V domains shown)
# VH: QVQLVESGGGVVQPGRSLRLSCAASEFTFATYAMHWVRQAPGKGLEWVALISQDGSNKHYADSVKGRFTISRDNSKNTLYLQMNSLRAEGTAIYYCARESLEAAGPPFDYWGQGTLVTVSS
# VL: SYELTQPPSVSVSPGQTATIICSGDKLGEKYASWYQQKPGQSPALVIYQDRKRPSGIPERFSGSNSGNTATLTISGTQAMDEADYYCQAWDSSNSVVFGGGTKLTVP
# B21: antibody 453 (antibody, V domains shown)
# VH: QVQLVESGGGVVQPGRSLRLSCAASGFTFSSYAMYWVRQAPGKGLEWVAVISYDGSNKYYADSVKGRFTISRDNSKNTLYLQMNSLRAEDTAVYYCARDRPHYYGSGRKILNLYGMDVWGQGTTVTVSS
# VL: DIQLTQSPSFLSASVGDRVTITCRASQGISSYLAWYQQKPGKAPKLLIYAASTLQSGVPSSFSGSGSGTEFTLTISSLQPEDFATYYCQQLNSYPPFTFGPGTKVDIK
# Molecular target: SARS-CoV-2 full length spike protein, D614G mutant, expressed on CHO cells (SARS-CoV-2, UniProt P0DTC2 14-1273)
row,Binder,median fluorescence fold over isotype control [fold over isotype]
1,B1,8.76
2,B2,67.8
3,B3,15.9
4,B4,6.02
5,B5,35.6
6,B6,17.9
7,B7,63.4
8,B8,7.97
9,B9,70.1

# Molecular target: SARS-CoV-2 full length spike protein, V367F mutant, expressed on CHO cells (SARS-CoV-2, UniProt P0DTC2 14-1273)
row,Binder,median fluorescence fold over isotype control [fold over isotype]
1,B1,35.5
2,B2,46.9
3,B3,6.69
4,B4,27.4
5,B5,18.8
6,B6,7.64
7,B7,37.8
8,B8,32.8
9,B9,30.6

# Molecular target: SARS-CoV-2 full length spike protein, D614G mutant (SARS-CoV-2, UniProt P0DTC2 14-1273)
row,Binder,median fluorescence fold over isotype control [fold over isotype]
1,B10,9.17
2,B11,68.1
3,B12,8.24
4,B13,6.29
5,B14,23.1
6,B15,13.3
7,B16,71.2
8,B17,27.8
9,B18,15.8
10,B19,14.9
11,B20,6.23
12,B21,7.41

# Molecular target: SARS-CoV-2 full length spike protein, V367F mutant (SARS-CoV-2, UniProt P0DTC2 14-1273)
row,Binder,median fluorescence fold over isotype control [fold over isotype]
1,B10,38.3
2,B11,36.9
3,B12,32.3
4,B13,29.9
5,B14,12.3
6,B15,5.79
7,B16,44
8,B17,6.89
9,B18,7.17
10,B19,6.24
11,B20,27.4
12,B21,39.4

# Reference: patent US20210292393A1 (published 2021)
